# Laboratory results from PMC9213739, “Substrates and Loaded Iron Ions Relative Position Influence the Catalytic Characteristics of the Metalloenzymes Angelica archangelica Flavone Synthase I and Camellia sinensis Flavonol Synthase” (Frontiers in Pharmacology, 2022).
# System: T1, COc1ccc([C@@H]2CC(=O)c3c(O)cc(O)cc3O2)cc1O
# T1 construct: synthetic gene in pET-28a(+) (NcoI/XhoI), expressed in E. coli BL21(DE3); 365 residues
# Assay: UPLC-MS product formation, Lineweaver-Burk
# Format: biochemical, Angelica archangelica
# Details: diosmetin formation (main product), Tris-HCl pH 7.5, 23 °C, 1 h, 5 mM 2-mercaptoethanol, 1 mM NADPH, 'separated protein', purification not described
# Description: UPLC-MS product formation, Lineweaver-Burk on […]
# AnFNS I (Angelica archangelica), sequence (chain, as listed by the source): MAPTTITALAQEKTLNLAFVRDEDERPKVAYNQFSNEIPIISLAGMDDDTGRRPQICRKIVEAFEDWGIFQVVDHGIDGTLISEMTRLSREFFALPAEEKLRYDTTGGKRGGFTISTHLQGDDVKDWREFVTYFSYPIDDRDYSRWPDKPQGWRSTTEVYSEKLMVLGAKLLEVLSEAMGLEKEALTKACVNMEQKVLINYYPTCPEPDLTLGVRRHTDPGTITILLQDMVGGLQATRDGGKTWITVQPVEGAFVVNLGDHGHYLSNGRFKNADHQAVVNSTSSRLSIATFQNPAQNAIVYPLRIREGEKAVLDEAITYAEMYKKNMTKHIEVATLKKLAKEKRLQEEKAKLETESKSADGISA
substance,measurement,value
AnFNS I (Angelica archangelica),Km,59.04 µM
same,Vmax,0.0366 µmol/min/mg
same,kcat,0.0249 s⁻¹
same,kcat/Km,423 M⁻¹ s⁻¹
